Data: article PMC7504044 (International Journal of Molecular Sciences, 2020)

Experiments:
[1] = target: emerin (Caenorhabditis elegans) (UniProt O01971); details: cited from earlier work
[2] = target: the molecule itself; test: SPR; GST–emerin coupled by EDC–NHS to polyethylene glycol/carboxyl sensor slides (Reichert SR7500DC); five increasing concentrations of analyte in PBST at 40 µL/min, 150 s association, 150 s dissociation, no regeneration
SPR = target: the molecule itself; test: SPR

emerin (from UniProt O01971)
Kd [1]: 14 nM

B1: GST–emerin (full-length emerin fused to GST) (natural protein, UniProt P50402 1-254, looked up)
chain: MDNYADLSDTELTTLLRRYNIPHGPVVGSTRRLYEKKIFEYETQRRRLSPPSSSAASSYSFSDLNSTRGDADMYDLPKKEDALLYQSKGYNDDYYEESYFTTRTYGEPESAGPSRAVRQSVTSFPDADAFHHQVHDDDLLSSSEEECKDRERPMYGRDSAYQSITHYRPVSASRSSLDLSYYPTSSSTSFMSSSSSSSSWLTRRAIRPENRAPGAGLGQDRQVPLWGQLLLFLVFVIVLFFIYHFMQAEEGNPF
notes: emerin, full-length; also called pGST–emerin; source: E. coli BL21, purified (glutathione-Sepharose)
Kd [2]: 1.87 nM | koff (SPR): 0.00154 s⁻¹
